Experimental data: PMC10755861, “Structural analysis and functional evaluation of the disordered ß–hexosyltransferase region from Hamamotoa (Sporobolomyces) singularis” (Frontiers in Bioengineering and Biotechnology, 2023)

B1: rBHT(32–594)-HIS, recombinant ß-hexosyltransferase from Hamamotoa (Sporobolomyces) singularis, residues 32–594 (enzyme, UniProt Q564N5 32-594, looked up)
chain: SLTSNYETPSPTAIPLEPTPTATGTAELDALWNLVEAQYPVQTAAVTTLVTVPDDYKFEADPPSYALAGYETSEIAGLKFPKGFKFGVAGAAIQVEGAAKAEGRGPSTWDYLCHHYASTQCNNYDPDITTNHYYLYPLDFARLQHLGINTYSFSISWTRIYPLGAGYVNEAGLAHYDAVIHSAKKYGLEPVGTVFHWDTPLSLMLKYGAWQDTGDQIVKDFVTYATTVFKRYGNEVKTWFTFNEPRVFCSQNSGLPYNLTYPEGINSTSAVFRCTYNVLKAHGHAVKVYRDLVASGTIAAGEIGFKSDDNYPIPARPGNADDEESAKRHEAFRIGIFAQPVYGNGDYPDVVKETVGDMLPALTDEDKGYIKGSGDIFAIDGYRTDISHAALNGIANCIRNQSDPNWPVCEEGSDPFAHVYPSGFAIGQSADPLSSWLVNSAPFIRDQLKFLTQTYPAKGGIYFSEFGWAEDAEYDRQLLYQITWDGLRTQYLTDYLSQLLLAVHKDGINLRGALTWSFVDNWEWGLGMQQKFGFQFVNQSDPDLTRTFKLSAHAYAQFGRNHL
notes: ß-hexosyltransferase (BHT, BglA) of Hamamotoa (Sporobolomyces) singularis, 594-residue polypeptide, residues 32-594; Expressed behind the MFα pre-pro leader of pPIC9 (primer encodes KR-EAEA before residue 32; leftover leader residues are a surmise); Glycosylated enzyme; also called GS115::MFα-rBht(32–594)-HIS; JB223; not shown: His6, C-terminal, kept
B2: rBHT(57–594)-HIS, recombinant ß-hexosyltransferase from Hamamotoa (Sporobolomyces) singularis, residues 57–594 (enzyme, UniProt Q564N5 57-594, looked up)
chain: AELDALWNLVEAQYPVQTAAVTTLVTVPDDYKFEADPPSYALAGYETSEIAGLKFPKGFKFGVAGAAIQVEGAAKAEGRGPSTWDYLCHHYASTQCNNYDPDITTNHYYLYPLDFARLQHLGINTYSFSISWTRIYPLGAGYVNEAGLAHYDAVIHSAKKYGLEPVGTVFHWDTPLSLMLKYGAWQDTGDQIVKDFVTYATTVFKRYGNEVKTWFTFNEPRVFCSQNSGLPYNLTYPEGINSTSAVFRCTYNVLKAHGHAVKVYRDLVASGTIAAGEIGFKSDDNYPIPARPGNADDEESAKRHEAFRIGIFAQPVYGNGDYPDVVKETVGDMLPALTDEDKGYIKGSGDIFAIDGYRTDISHAALNGIANCIRNQSDPNWPVCEEGSDPFAHVYPSGFAIGQSADPLSSWLVNSAPFIRDQLKFLTQTYPAKGGIYFSEFGWAEDAEYDRQLLYQITWDGLRTQYLTDYLSQLLLAVHKDGINLRGALTWSFVDNWEWGLGMQQKFGFQFVNQSDPDLTRTFKLSAHAYAQFGRNHL
notes: ß-hexosyltransferase (BHT, BglA) of Hamamotoa (Sporobolomyces) singularis, 594-residue polypeptide, residues 57-594; Expressed behind the MFα pre-pro leader of pPIC9 (primer encodes KR-EAEA before residue 57; leftover leader residues are a surmise); Glycosylated enzyme; also called GS115::MFα-rBht(57–594)-HIS; JB225; not shown: His6, C-terminal, kept
B3: rBHT(54–594)-HIS, recombinant ß-hexosyltransferase from Hamamotoa (Sporobolomyces) singularis, residues 54–594 (enzyme, UniProt Q564N5 54-594, looked up)
chain: TGTAELDALWNLVEAQYPVQTAAVTTLVTVPDDYKFEADPPSYALAGYETSEIAGLKFPKGFKFGVAGAAIQVEGAAKAEGRGPSTWDYLCHHYASTQCNNYDPDITTNHYYLYPLDFARLQHLGINTYSFSISWTRIYPLGAGYVNEAGLAHYDAVIHSAKKYGLEPVGTVFHWDTPLSLMLKYGAWQDTGDQIVKDFVTYATTVFKRYGNEVKTWFTFNEPRVFCSQNSGLPYNLTYPEGINSTSAVFRCTYNVLKAHGHAVKVYRDLVASGTIAAGEIGFKSDDNYPIPARPGNADDEESAKRHEAFRIGIFAQPVYGNGDYPDVVKETVGDMLPALTDEDKGYIKGSGDIFAIDGYRTDISHAALNGIANCIRNQSDPNWPVCEEGSDPFAHVYPSGFAIGQSADPLSSWLVNSAPFIRDQLKFLTQTYPAKGGIYFSEFGWAEDAEYDRQLLYQITWDGLRTQYLTDYLSQLLLAVHKDGINLRGALTWSFVDNWEWGLGMQQKFGFQFVNQSDPDLTRTFKLSAHAYAQFGRNHL
notes: ß-hexosyltransferase (BHT, BglA) of Hamamotoa (Sporobolomyces) singularis, 594-residue polypeptide, residues 54-594; Expressed behind the MFα pre-pro leader of pPIC9 (primer encodes KR-EAEA before residue 54; leftover leader residues are a surmise); Glycosylated enzyme; also called GS115::MFα-rBht(54–594)-HIS; JB224; not shown: His6, C-terminal, kept
B4: rBHT(23–594)-HIS, recombinant ß-hexosyltransferase from Hamamotoa (Sporobolomyces) singularis, residues 23–594 (enzyme, UniProt Q564N5 23-594, looked up)
chain: VTYPGAIPLSLTSNYETPSPTAIPLEPTPTATGTAELDALWNLVEAQYPVQTAAVTTLVTVPDDYKFEADPPSYALAGYETSEIAGLKFPKGFKFGVAGAAIQVEGAAKAEGRGPSTWDYLCHHYASTQCNNYDPDITTNHYYLYPLDFARLQHLGINTYSFSISWTRIYPLGAGYVNEAGLAHYDAVIHSAKKYGLEPVGTVFHWDTPLSLMLKYGAWQDTGDQIVKDFVTYATTVFKRYGNEVKTWFTFNEPRVFCSQNSGLPYNLTYPEGINSTSAVFRCTYNVLKAHGHAVKVYRDLVASGTIAAGEIGFKSDDNYPIPARPGNADDEESAKRHEAFRIGIFAQPVYGNGDYPDVVKETVGDMLPALTDEDKGYIKGSGDIFAIDGYRTDISHAALNGIANCIRNQSDPNWPVCEEGSDPFAHVYPSGFAIGQSADPLSSWLVNSAPFIRDQLKFLTQTYPAKGGIYFSEFGWAEDAEYDRQLLYQITWDGLRTQYLTDYLSQLLLAVHKDGINLRGALTWSFVDNWEWGLGMQQKFGFQFVNQSDPDLTRTFKLSAHAYAQFGRNHL
modifications: N-glycosylation sites N289, N297, N431, N569 (NAG in the crystal structure); phosphorylation sites found in the crystal structure: T56, T74, T79
notes: Expressed behind the S. cerevisiae alpha factor pre-pro leader (MFα) of pPIC9; the forward primer encodes KR-EAEA before residue 23, so some leader residues (EAEA) may be left on the N-terminus after processing (surmise); Residues 23-53 lack electron density in PDB 7L74; also called rBHT(23–594)-6XHIS; BglA; source: K. phaffii GS115, secreted into the culture medium, purified (HISTrap HP Nickel …)

Experiments:
[1] = molecular target: the molecule itself; assay: SEC; purified variants; single peak, retention time 12.5 min, calculated Mw 150 kDa; data not shown
[2] = molecular target: the molecule itself; assay: SAXS; rBHT(23–594)-HIS in solution at 1 mg/mL and 4 mg/mL; molecular mass by the method of Rambo and Tainer

Row | Protein | stoichiometry N [1] | stoichiometry N [2]
1 | B1 | 2 | 
2 | B2 | 2 | 
3 | B3 | 2 | 
4 | B4 |  | 2
